# Assay results from US20090263836A1.
# Several values for one entry are separate records, joined by “and”; a condition that tells them apart may be missing. Equal entries are not always repeated. Where two headings read alike, the source gives them in different places.
# What was measured:
# [1] = molecular target: BoNT/A binding domain (rBoNT/A-HC) (Clostridium botulinum)
# [2] = molecular target: BoNT/A binding domain (rBoNT/A-HC) (Clostridium botulinum); remark: listed apart in the source
# BoNT/A binding domain (rBoNT/A-HC) (Clostridium botulinum), sequence (P0DPI1 873-1296): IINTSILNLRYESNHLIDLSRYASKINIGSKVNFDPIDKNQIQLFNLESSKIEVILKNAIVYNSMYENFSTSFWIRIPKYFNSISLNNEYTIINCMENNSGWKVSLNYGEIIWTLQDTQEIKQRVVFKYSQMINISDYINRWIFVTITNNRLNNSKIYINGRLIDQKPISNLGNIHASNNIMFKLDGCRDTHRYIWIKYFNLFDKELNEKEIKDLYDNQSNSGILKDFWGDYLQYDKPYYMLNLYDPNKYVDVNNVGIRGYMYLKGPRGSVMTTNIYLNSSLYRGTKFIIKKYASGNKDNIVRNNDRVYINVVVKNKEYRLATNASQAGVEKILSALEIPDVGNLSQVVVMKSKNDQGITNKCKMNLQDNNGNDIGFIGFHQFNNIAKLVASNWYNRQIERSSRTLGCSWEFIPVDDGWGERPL
Substance,Percentage increase [1],RUMax [1],Percentage increase [2],RUMax [2]
"SV2C (transfected, pReceiver-M02/SV2C) (receptor)",8% and 6%,140 RU and 85 RU,,
"FGFR2 (transfected, pReceiver-M02/FGFR2) (receptor)",,,46% and 24% and 40%,510 RU and 460 RU and 450 RU
"FGFR3 (transfected, pReceiver-M02/FGFR3) (receptor)",73%,225 RU and 110 RU,46% and 38% and 40%,510 RU and 450 RU
"FGFR1 (transfected, pReceiver-M02/FGFR1) (receptor)",,,,480 RU and 470 RU and 330 RU
FGFR3 and SV2C co-transfected,27% and 13%,165 RU and 90 RU,,
